Measured values reported in patent US20230391882A1 (NUMAB THERAPEUTICS, published 2023).

What was measured:
[1] = biological target: soluble mesothelin (sMSLN) (UniProt Q13421 296-580, limits assumed); assay: cell-based or functional assay
[2] = biological target: mesothelin (MSLN) on target cells (H226, MeT-5A) (UniProt Q13421 37-598, limits assumed); assay: cell-based or functional assay

| Binder | decrease of potency of T-cell driven target cell killing in the presence of 500 ng/ml soluble MSLN [1] | increase of EC50 for killing high MSLN expressing target cells in the presence of 50 ng/ml sMSLN [1] | increase of EC50 for killing high MSLN expressing target cells in the presence of 500 ng/ml sMSLN [1] | T-cell driven cytotoxicity assay: EC50 for killing high MSLN expressing target cells against EC50 for killing MeT-5A cells [2] |
| --- | --- | --- | --- | --- |
| PRO2100 (biMSLNlow affinity x CD3 x hSA) (other) chain 1: DIQMTQSPSSLSASVGDRVTITCQASQNIYSNLAWYQQKPGKAPKLLIYDASDLASGVPSRFSGSGSGTDFTLTISSLQPEDFATYYCQQVRSSSDIDNPFGTGTKVTVLGGGGGSGGGGSGGGGSGGGGSQVQLVESGGGLVQPGGSLRLSCAASGFSLSSYAMGWVRQAPGKGLEWIGYISTIANTYYASWAKGRFTISRDNSKNTVYLQMNSLRAEDTAVYYCAREIRSGWVDYGFSIWGQGTLVTVSSGGGGSGGGGSEVQLVESGGGLVQPGGSLRLSCAASGFSLSSYDMSWVRQAPGKGLAWIGASYASGPTYYASWAKGRFTISRDNSKNTVYLQMNSLRAEDTATYFCARGGWTGTSHSNIWGQGTLVTVSSGGGSGGGSEVQLVESGGGLVQPGGSLRLSCAASGFSFSSSYWICWVRQAPGKCLEWVGCVFTGDGTTYYASWAKGRFTISRDNSKNTVYLQMNSLRAEDTATYFCARPVSVYYYGMDLWGQGTLVTVSS chain 2: DIQMTQSPSSLSASVGDRVTITCQASQNIYSNLAWYQQKPGKAPKLLIYDASDLASGVPSRFSGSGSGTDFTLTISSLQPEDFATYYCQQVRSSSDIDNPFGTGTKVTVLGGGGGSGGGGSGGGGSGGGGSQVQLVESGGGLVQPGGSLRLSCAASGFSLSSYAMGWVRQAPGKGLEWIGYISTIANTYYASWAKGRFTISRDNSKNTVYLQMNSLRAEDTAVYYCAREIRSGWVDYGFSIWGQGTLVTVSSGGGGSGGGGSDVVMTQSPSSLSASVGDRVTITCQASQIISSRSAWYQQKPGQPPKLLIYQASKLASGVPSRFSGSGSGTDFTLTISSLQPEDFATYYCQCTYIDSNFGAFGCGTKLTVLGGGSGGSDIQMTQSPSSLSASVGDRVTITCQSSQSVFSNNYLAWFQQKPGQSPKRLIYSASTLASGVPSRFSGSGSGTDFTLTISSLQPEDFATYYCLGSYACSSADCYVFGTGTKVTVLG | 17 fold | – | – | – |
| PRO2562 (MATCH4) (other) chain 1: ALQMTQSPSSLSARVGDRVTIKCQASQSISNYLAWYQQKPGKPPKFLIYDASDLASGVPSRFSGSGSGRDFTLTISSLQPEDFATYYCQQVYDSNNVENVFGCGTKVTVLGGGGGSGGGGSGGGGSGGGGSQSQLVESGGGLVQPGGSLRLSCAVSGFSLSSYAMGWVRQAPGKCLEYIGYISKIGTTYYASWAKGRFTISKDNSKNTVYLQMNSLRAEDTAVYFCARGSSSGGYLDDGFDPWGQGTLVTVSSGGGGSGGGGSEVQLVESGGGLVQPGGSLRLSCAASGFSLSSYDMSWVRQAPGKGLAWIGASYASGPTYYASWAKGRFTISRDNSKNTVYLQMCSLRAEDTATYFCARGGWTGTSHSNIWGQGTLVTVSSGGGSGGGSGGGSGEVQLVESGGGLVQPGGSLRLSCAASGFSLSSYAMNWVRQAPGKCLEWIGHINAGDIAYYATWAKGRFTISRDNSKNTVYLQMNSLRAEDTAVYFCARGAGGFSTGPFKLWGQGTLVTVSS chain 2: ALQMTQSPSSLSARVGDRVTIKCQASQSISNYLAWYQQKPGKPPKFLIYDASDLASGVPSRFSGSGSGRDFTLTISSLQPEDFATYYCQQVYDSNNVENVFGCGTKVTVLGGGGGSGGGGSGGGGSGGGGSQSQLVESGGGLVQPGGSLRLSCAVSGFSLSSYAMGWVRQAPGKCLEYIGYISKIGTTYYASWAKGRFTISKDNSKNTVYLQMNSLRAEDTAVYFCARGSSSGGYLDDGFDPWGQGTLVTVSSGGGGSGGGGSAFELTQSPSSLSASVGDRVTITCQASESINSRLAWYQQKPGQPPKLLIYDASDLTSGVPSRFSGSGSGTDFTLTISCLQPEDFATYYCQGYGGSSTTTFGCGTKLTVLGGGSGGSGGSGGSGDIQMTQSPSSLSASVGDRVTITCQSSQSVFSNNYLAWFQQKPGQSPKRLIYSASTLASGVPSRFSGSGSGTDFTLTISSLQPEDFATYYCLGSYACSSADCYVFGTGTKVTVLG | – | ≤ 6 fold | ≤ 40 fold | ≥ 25 fold |
| PRO2566 (MATCH4) (other) chain 1: AFELTQSPSSLSASVGDRVTITCQASESINSRLAWYQQKPGQPPKLLIYDASDLTSGVPSRFSGSGSGTDFTLTISSLQPEDFATYYCQGYGGSSTTTFGTGTKLTVLGGGGGSGGGGSGGGGSGGGGSEVQLVESGGGLVQPGGSLRLSCAASGFSLSSYAMNWVRQAPGKGLEWIGHINAGDIAYYATWAKGRFTISRDNSKNTVYLQMNSLRAEDTAVYFCARGAGGFSTGPFKLWGQGTLVTVSSGGGGSGGGGSEVQLVESGGGLVQPGGSLRLSCAASGFSLSSYDMSWVRQAPGKGLAWIGASYASGPTYYASWAKGRFTISRDNSKNTVYLQMNSLRAEDTATYFCARGGWTGTSHSNIWGQGTLVTVSSGGGSGGGSGGGSGQSQLVESGGGLVQPGGSLRLSCAVSGFSLSSYAMGWVRQAPGKCLEYIGYISKIGTTYYASWAKGRFTISKDNSKNTVYLQMNSLRAEDTAVYFCARGSSSGGYLDDGFDPWGQGTLVTVSS chain 2: ALQMTQSPSSLSARVGDRVTIKCQASQSISNYLAWYQQKPGKPPKFLIYDASDLASGVPSRFSGSGSGRDFTLTISSLQPEDFATYYCQQVYDSNNVENVFGCGTKVTVLGGGGGSGGGGSGGGGSGGGGSQSQLVESGGGLVQPGGSLRLSCAVSGFSLSSYAMGWVRQAPGKCLEYIGYISKIGTTYYASWAKGRFTISKDNSKNTVYLQMNSLRAEDTAVYFCARGSSSGGYLDDGFDPWGQGTLVTVSSGGGGSGGGGSALQMTQSPSSLSARVGDRVTIKCQASQSISNYLAWYQQKPGKPPKFLIYDASDLASGVPSRFSGSGSGRDFTLTISSLQPEDFATYYCQQVYDSNNVENVFGCGTKVTVLGGGSGGSGGSGGSGDIQMTQSPSSLSASVGDRVTITCQSSQSVFSNNYLAWFQQKPGQSPKRLIYSASTLASGVPSRFSGSGSGTDFTLTISSLQPEDFATYYCLGSYACSSADCYVFGTGTKVTVLG | – | ≤ 6 fold | ≤ 40 fold | ≥ 25 fold |
| PRO2567 (MATCH4) (other) chain 1: AFELTQSPSSLSASVGDRVTITCQASESINSRLAWYQQKPGQPPKLLIYDASDLTSGVPSRFSGSGSGTDFTLTISSLQPEDFATYYCQGYGGSSTTTFGTGTKLTVLGGGGGSGGGGSGGGGSGGGGSEVQLVESGGGLVQPGGSLRLSCAASGFSLSSYAMNWVRQAPGKGLEWIGHINAGDIAYYATWAKGRFTISRDNSKNTVYLQMNSLRAEDTAVYFCARGAGGFSTGPFKLWGQGTLVTVSSGGGGSGGGGSEVQLVESGGGLVQPGGSLRLSCAASGFSLSSYDMSWVRQAPGKGLAWIGASYASGPTYYASWAKGRFTISRDNSKNTVYLQMNSLRAEDTATYFCARGGWTGTSHSNIWGQGTLVTVSSGGGSGGGSGGGSGQSQLVESGGGLVQPGGSLRLSCAVSGFSLSSYAMGWVRQAPGKCLEYIGYISKIGTTYYASWAKGRFTISKDNSKNTVYLQMNSLRAEDTAVYFCARGSSSGGYLDDGFDPWGQGTLVTVSS chain 2: ALQMTQSPSSLSARVGDRVTIKCQASQSISNYLAWYQQKPGKPPKFLIYDASDLASGVPSRFSGSGSGRDFTLTISSLQPEDFATYYCQQVYDSNNVENVFGCGTKVTVLGGGGGSGGGGSGGGGSGGGGSQSQLVESGGGLVQPGGSLRLSCAVSGFSLSSYAMGWVRQAPGKCLEYIGYISKIGTTYYASWAKGRFTISKDNSKNTVYLQMNSLRAEDTAVYFCARGSSSGGYLDDGFDPWGQGTLVTVSSGGGGSGGGGSALQMTQSPSSLSARVGDRVTIKCQASQSISNYLAWYQQKPGKPPKFLIYDASDLASGVPSRFSGSGSGRDFTLTISSLQPEDFATYYCQQVYDSNNVENVFGCGTKVTVLGGGSGGSDIQMTQSPSSLSASVGDRVTITCQSSQSVFSNNYLAWFQQKPGQSPKRLIYSASTLASGVPSRFSGSGSGTDFTLTISSLQPEDFATYYCLGSYACSSADCYVFGTGTKVTVLG | – | ≤ 6 fold | ≤ 40 fold | ≥ 25 fold |
